Measured values reported in publication doi:10.1101/654111 (bioRxiv, 2019).

Target: the molecule itself
Assay: SEC-MALS

B1: Gemin5 TPR-like domain (residues 807-1097) (domain or fragment)
chain: TPVSSGFEKSKVTINNKVILLKKEPPKEKPETLIKKRKARSLLPLSTSLDHRSKEELHQDCLVLATAKHSRELNEDVSADVEERFHLGLFTDRATLYRMIDIEGKGHLENGHPELFHQLMLWKGDLKGVLQTAAERGELTDNLVAMAPAAGYHVWLWAVEAFAKQLCFQDQYVKAASHLLSIHKVYEAVELLKSNHFYREAIAIAKARLRPEDPVLKDLYLSWGTVLERDGHYAVAAKCYLGATCAYDAAKVLAKKGDAASLRTAAELAAIVGEDELSASLALRCAQELLL
Which “stoichiometry N” value does the source give for B1 here?
The value was 2.
